± gives the uncertainty stated by the source.
Assay: self-splicing fitness, log relative to wild type (ln ratio); higher = more splicing; Tetrahymena group I intron in knt gene, E. coli kanamycin selection, DiMSum; sequences stand for … in CUCUCU…GGAGGGAAAAGUUAUCAGGCAUGCACCUGGUAGCUAGUCUUUAAACCAAUAGAUUGCAUCGGUUUAAAAGGCAAGACCGUCAAAUUGCGGGAAAGGGGUCAACAGCCGUUCAGUACCAAGUCUCAGGGGAAACUUUGAGAUGGCCUUGCAAAGGGUAUGGUAAUAAGCUGACGGACAUGGUCCUAACCACGCAGCCAAGUCCUAAGUCAACAGAUCUUCUGUUGAUAUGGAUGCAGUUCACAGACUAAAUGUCGGUCGGGGAAGAUGUAUUCUUCUCAUAAGAUAUAGUCGGACCUCUCCUUAAUGGGAGCUAGCGGAUGAAGUGAUGCAACACUGGAGCCGCUGGGAACUAAUUUGUAUGCGAAAGUAUAUUGAUUAGUUUUGGAGUACUCGUGGUCG
Outline: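 A randomised library covering all eight P1ex-region intron nucleotides was built with the intron in the knt kanamycin-resistance gene on pET-22b(+) and held in E. coli BL21(DE3). Cells were grown overnight at 37°C or 30°C on LB agar, with or without 25 μg/mL kanamycin, plus 100 μg/mL carbenicillin, 50 μM IPTG and 0.2% rhamnose, and pooled colonies were amplicon-sequenced on an Illumina HiSeq 2500. DiMSum fitness is the error-weighted combination of wild-type-normalised replicate fold changes, kanamycin versus none.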

Sequence | self-splicing fitness (ln) (30 °C) | self-splicing fitness (ln) (37 °C)
CUCCAGCAAUAUUACGCUUG | -3.52 ± 0.19 | -2.96 ± 0.21
UUGAAGCAAUAUUACGACGA | 0.302 ± 0.12 | 0.04 ± 0.14
ACCAAGCAAUAUUACGCCCC | -1.37 ± 0.35 | 0.27 ± 0.24
UAACAGCAAUAUUACGCUCU | -1.12 ± 0.073 | -0.498 ± 0.08
AAAGAGCAAUAUUACGCCGU | -3.07 ± 0.48 | -1.74 ± 0.42
CCAUAGCAAUAUUACGGGUC | -3.41 ± 0.35 | -2.23 ± 0.23
CCAGAGCAAUAUUACGGUAU | -3.47 ± 0.2 | -2.75 ± 0.26
AAAUAGCAAUAUUACGGUAA | -2.14 ± 0.21 | -1.5 ± 0.16
GGCUAGCAAUAUUACGAAUC | 0.199 ± 0.18 | 0.239 ± 0.19
UCCAAGCAAUAUUACGGGAG | -2.57 ± 0.16 | -2.9 ± 0.35
GUCCAGCAAUAUUACGUCGU | -0.0754 ± 0.066 | -0.486 ± 0.088
AAAUAGCAAUAUUACGCCUA | -0.886 ± 0.13 | -0.23 ± 0.13
UUUAAGCAAUAUUACGUAAU | -2.15 ± 0.11 | -1.74 ± 0.12
UUUUAGCAAUAUUACGAUAU | -2.66 ± 0.22 | -1.42 ± 0.28
CACAAGCAAUAUUACGGACA | -2.34 ± 0.12 | -2.29 ± 0.12
ACGAAGCAAUAUUACGCCCA | -1.11 ± 0.17 | -0.748 ± 0.26
ACAGAGCAAUAUUACGGAUU | -3.67 ± 0.18 | -1.84 ± 0.14
GCGGAGCAAUAUUACGUCGU | -4.11 ± 0.35 | -2.24 ± 0.36
GACGAGCAAUAUUACGGAAC | -1.3 ± 0.19 | -2.43 ± 0.35
AUACAGCAAUAUUACGAGGG | -3.68 ± 0.2 | -2.21 ± 0.19
UGGGAGCAAUAUUACGAACA | -1.33 ± 0.088 | -1.02 ± 0.091
GUGUAGCAAUAUUACGUAUG | -3.21 ± 0.23 | -2.78 ± 0.27
GUUGAGCAAUAUUACGGACU | -3.15 ± 0.24 | -3.49 ± 0.34
GACAAGCAAUAUUACGCCGU | -2.93 ± 0.14 | -0.97 ± 0.12

Sequence | self-splicing fitness (ln) (30 °C) | self-splicing fitness (ln) (37 °C)
CGUCAGCAAUAUUACGACUG | -0.935 ± 0.11 | 0.699 ± 0.13
AACAAGCAAUAUUACGAAGC | -3.15 ± 0.27 | -2.83 ± 0.38
CGUGAGCAAUAUUACGUACU | -1.7 ± 0.12 | -0.396 ± 0.14
AUGUAGCAAUAUUACGUGUG | -3.33 ± 0.23 | -2.53 ± 0.15
GUAGAGCAAUAUUACGAAUU | -2.35 ± 0.21 | -2.01 ± 0.35
AAGUAGCAAUAUUACGGACG | -2.73 ± 0.18 | -1.74 ± 0.2
GGUAAGCAAUAUUACGCGAC | -2.04 ± 0.16 | -1.19 ± 0.2
UCCGAGCAAUAUUACGGCGG | -2.11 ± 0.14 | -2.2 ± 0.15
GGUCAGCAAUAUUACGCGAG | -1.93 ± 0.13 | -0.499 ± 0.13
UGGUAGCAAUAUUACGGUUG | -0.694 ± 0.082 | -0.285 ± 0.11
AUAUAGCAAUAUUACGCUUU | -2.12 ± 0.41 | -1.34 ± 0.31
UUGGAGCAAUAUUACGGCCG | -1.89 ± 0.3 | -0.616 ± 0.29
GAAAAGCAAUAUUACGGAUA | -1.32 ± 0.13 | -1.18 ± 0.12
ACCCAGCAAUAUUACGGGCG | -0.609 ± 0.055 | -0.0252 ± 0.077
CCUCAGCAAUAUUACGUCCU | -4.39 ± 0.31 | -2.68 ± 0.3
UAGUAGCAAUAUUACGUACG | -1.24 ± 0.16 | 0.127 ± 0.16
UUUAAGCAAUAUUACGUUUU | -3.93 ± 0.2 | -1.22 ± 0.16
UCUUAGCAAUAUUACGUGAU | -2.43 ± 0.28 | -2.01 ± 0.38
ACAGAGCAAUAUUACGUAUC | -4.32 ± 0.29 | -1.46 ± 0.14
ACAGAGCAAUAUUACGCUGG | -3.47 ± 0.14 | -2.53 ± 0.16
UUCCAGCAAUAUUACGCUCA | -0.327 ± 0.068 | 0.143 ± 0.089
GUGCAGCAAUAUUACGGUAU | -2.16 ± 0.12 | -1.53 ± 0.15
GUCCAGCAAUAUUACGGUAU | -0.797 ± 0.052 | 0.0993 ± 0.064
